Experiments:
[1] = target: T1, CENP-T^site1 (human, UniProt Q96BT3 1-242, T11D | deletion of amino acids from 76 to 106); test: TIRF microscopy of single molecules
[2] = target: CENP-T^site2 (human, UniProt Q96BT3 1-242, T85D | deletion of amino acids from 2 to 30); test: TIRF microscopy of single molecules
[3] = target: T2, CENP-T^6D (CENP-T^6D-GFP-Spy-tag) (human, UniProt Q96BT3 1-242, T11D | T27D | S47D | T85D | T195D | S201D); test: TIRF microscopy of single molecules
[4] = target: T1, CENP-T^site1; test: TIRF microscopy of single molecules; remark: listed apart in the source
[5] = target: T3, CENP-T^2D (human, UniProt Q96BT3 1-242, T11D | T85D); test: TIRF microscopy of clusters
[6] = target: T2, CENP-T^6D (CENP-T^6D-GFP-Spy-tag); test: TIRF microscopy of clusters
[7] = target: T3, CENP-T^2D; test: fluorescence correlation spectroscopy

stoichiometry N [1]	stoichiometry N [2]	stoichiometry N [3]	fold reduction of kon of site 1 against CENP-T^2D and CENP-T^6D (model fit) [4] [fold]	binding result [5]	stoichiometry N [6]	binding result [7]	Binder
~1 Ndc80 molecules per CENP-T	~1 Ndc80 molecules per CENP-T	~2 Ndc80 molecules per CENP-T	8	binds	≤ 2 Ndc80 molecules per CENP-T		Human Bonsai Ndc80 complex with C-terminal GFP (complex) chain 1: MKRSSVSSGGAGRLSMQELRSQDVNKQGLYTPQTKEKPTFGKLSINKPTSERKVSLFGKRTSGHGSRNSQLGIFSSSEKIKDPRPLNDKAFIQQCIRQLCEFLTENGYAHNVSMKSLQAPSVKDFLKIFTFLYGFLCPSYELPDTKFEEEVPRIFKDLGYPFALSKSSMYTVGAPHTWPHIVAALVWLIDCIKIHTAMKESSPLFDDGQPWGEETEDGIMHNKLFLDYTIKCYESFMSGADSFDEMNAELQSKLKDLFNVDAFKLESLEAKNRALNEQIARLEQERSTANKANAERLKRLQKSADLYKDRLGLEIRKIYGEKLQFIFTNIDPKNPESPFMFSLHLNEARDYEVSDSAPHLEGLAEFQENVRKTNNFSAFLANVRKAFTATVYN chain 2: METLSFPRYNVAEIVIHIRNKILTGADGKNLTKNDLYPNPKPEVLHMIYMRALQIVYGIRLEHFYMMPVNSEVMYPHLMEGFLPFSNLVTHLDSFLPICRVNDFETADILCPKAKRTSRFLSGIINFIHFREACRETYMEFLWQYKSSADKMQQLNAAHQEALMKLERLEKEVDEDTTVTIPSAVYVAQLYHQVSKIEWDYECEPGMVKGIHHGPSVAQPIHLDSTQLSRKFISDYLWSLVDTEW
						binds	Human Bonsai Ndc80 complex, untagged (complex) chain 1: MKRSSVSSGGAGRLSMQELRSQDVNKQGLYTPQTKEKPTFGKLSINKPTSERKVSLFGKRTSGHGSRNSQLGIFSSSEKIKDPRPLNDKAFIQQCIRQLCEFLTENGYAHNVSMKSLQAPSVKDFLKIFTFLYGFLCPSYELPDTKFEEEVPRIFKDLGYPFALSKSSMYTVGAPHTWPHIVAALVWLIDCIKIHTAMKESSPLFDDGQPWGEETEDGIMHNKLFLDYTIKCYESFMSGADSFDEMNAELQSKLKDLFNVDAFKLESLEAKNRALNEQIARLEQERSTANKANAERLKRLQKSADLYKDRLGLEIRKIYGEKLQFIFTNIDPKNPESPFMFSLHLNEARDYEVSDSAPHLEGLAEFQENVRKTNNFSAFLANVRKAFTATVYN chain 2: METLSFPRYNVAEIVIHIRNKILTGADGKNLTKNDLYPNPKPEVLHMIYMRALQIVYGIRLEHFYMMPVNSEVMYPHLMEGFLPFSNLVTHLDSFLPICRVNDFETADILCPKAKRTSRFLSGIINFIHFREACRETYMEFLWQYKSSADKMQQLNAAHQEALMKLERLEKEVDEDTTVTIPSAVYVAQLYHQVSKIEWDYECEPGMVKGIHHGPSVAQPIHLDSTQLSRKFISDYLWSLVDTEW
